According to US6482933 (Takeda / Millennium, dated 2002):

Target: T1, CARD-4L epitope tagged with HA (pCI-CARD-4LcHA) (human, UniProt Q9Y239 1-953)
T1 construct: Expressed in 293T cells from pCI; in cell lysate
T1 sequence: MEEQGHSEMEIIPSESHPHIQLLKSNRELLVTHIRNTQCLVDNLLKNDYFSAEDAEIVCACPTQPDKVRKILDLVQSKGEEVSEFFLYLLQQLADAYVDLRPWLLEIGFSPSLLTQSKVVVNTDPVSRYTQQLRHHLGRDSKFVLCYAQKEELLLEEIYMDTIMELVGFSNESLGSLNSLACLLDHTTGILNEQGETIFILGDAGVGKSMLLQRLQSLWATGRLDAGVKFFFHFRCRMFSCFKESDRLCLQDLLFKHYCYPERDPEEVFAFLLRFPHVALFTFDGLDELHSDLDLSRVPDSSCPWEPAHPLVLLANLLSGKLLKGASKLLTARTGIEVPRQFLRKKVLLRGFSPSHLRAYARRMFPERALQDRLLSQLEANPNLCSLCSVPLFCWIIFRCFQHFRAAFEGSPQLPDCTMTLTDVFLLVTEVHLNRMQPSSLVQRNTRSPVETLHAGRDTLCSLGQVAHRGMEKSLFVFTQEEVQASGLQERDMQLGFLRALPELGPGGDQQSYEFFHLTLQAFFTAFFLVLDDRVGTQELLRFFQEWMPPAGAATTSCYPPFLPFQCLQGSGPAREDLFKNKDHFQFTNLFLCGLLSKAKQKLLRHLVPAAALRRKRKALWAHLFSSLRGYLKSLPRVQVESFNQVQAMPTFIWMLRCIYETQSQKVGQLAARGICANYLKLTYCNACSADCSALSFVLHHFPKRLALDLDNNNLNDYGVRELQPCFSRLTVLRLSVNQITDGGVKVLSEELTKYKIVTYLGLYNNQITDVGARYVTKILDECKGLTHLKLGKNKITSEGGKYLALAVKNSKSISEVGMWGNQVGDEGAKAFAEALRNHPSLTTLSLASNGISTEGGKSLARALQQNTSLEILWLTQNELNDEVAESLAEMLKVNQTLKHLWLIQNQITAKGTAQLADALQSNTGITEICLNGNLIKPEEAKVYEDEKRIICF
Experiment: coimmunoprecipitation from cotransfected 293T cells (anti-MYC IP, anti-HA Western blot)
Experimental: Cells from each transfected line were lysed and an immunoprecipitation procedure was carried out on each lysate with an anti-MYC epitope tag antibody to precipitate the CARD-4LcHA expressed by each cell line and any physically associated proteins.

B1: CARD-3 lacking the CARD domain (SEQ ID NO:6) epitope tagged with MYC (pCI-CARD3noCARDnMYC) (other, not shown: small tags and cut ends)
chain: MNGEAICSALPTIPYHKLADLRYLSRGASGTVSSARHADWRVQVAVKHLHIHTPLLDSERKDVLREAEILHKARFSYILPILGICNEPEFLGIVTEYMPNGSLNELLHRKTEYPDVAWPLRFRILHEIALGVNYLHNMTPPLLHHDLKTQNILLDNEFHVKIADFGLSKWRMMSLSQSRSSKSAPEGGTIIYMPPENYEPGQKSRASIKHDIYSYAVITWEVLSRKQPFEDVTNPLQIMYSVSQGHRPVINEESLPYDIPHRARMISLIESGWAQNPDERPSFLKCLIELEPVLRTFEEITFLEAVIQLKKTKLQSVSSAIHLCDKKKMELSLNIPVNHGPQEESCGSSQLHENSGSPETSRSLPAPQDNDFLSRKAQDCYFMKLHHCPGNHSWDSTISGSQRAAFCDHKTIPCSSAIINPLSTAGNSERL
notes: also called CARD-3 lacking its CARD domain
binding result: no binding
